This note sets out measurements from publication PMC12102759 (2025).

To fix the notation:
B1: PEX5 peptide 110-125 (Peroxisomal targeting signal 1 receptor), 16-mer library wild type / PEX14 Pex14 (PEX14 PEX14, residues 16-84) (parent complex)
chain 1: ADLALSENWAQEFLAA
chain 2: TPGSENVLPREPLIATAVKFLQNSRVRQSPLATRRAFLKKKGLTDEEIDMAFQQSGTAADEPSSLGPAT

The variants in the assay derive from B1. Description: proteomic peptide phage display deep mutational scan (ProP-PD DMS): M13 P8 16-mer library selected against immobilised GST-tagged bait for four days (rounds), NGS of the eluted pools per day and pseudo-replica; bait immobilised on MaxiSorp plates (10 µg), library pre-cleared on GST, 2 h binding at 4 °C, five washes; one round per day, days 1-4; value from days 2 and 3.
In the case of chain 1 L14D, the screen value is 0.000896 average fractional NGS count over selection days 2 and 3 (reads of this peptide / all reads for the bait, averaged over ….
As for chain 1 L14T, the screen value was 0.00188 average fractional NGS count over selection days 2 and 3 (reads of this peptide / all reads for the bait, averaged over ….
For chain 1 L14S, the screen value was 0.00136 average fractional NGS count over selection days 2 and 3 (reads of this peptide / all reads for the bait, averaged over ….
In the case of chain 1 L14R it was 0.000944 average fractional NGS count over selection days 2 and 3 (reads of this peptide / all reads for the bait, averaged over …; in that of chain 1 L14F, 0.00346 average fractional NGS count over selection days 2 and 3 (reads of this peptide / all reads for the bait, averaged over ….
The same measure for chain 1 S6L: 0.00108 average fractional NGS count over selection days 2 and 3 (reads of this peptide / all reads for the bait, averaged over …; for chain 1 L5K: 0.000511 average fractional NGS count over selection days 2 and 3 (reads of this peptide / all reads for the bait, averaged over ….
The same measure for chain 1 L5P: 0.000702 average fractional NGS count over selection days 2 and 3 (reads of this peptide / all reads for the bait, averaged over ….
Regarding chain 1 L5Q, the screen value was 0.000395 average fractional NGS count over selection days 2 and 3 (reads of this peptide / all reads for the bait, averaged over ….
Turning to chain 1 L5T, the screen value is 0.000402 average fractional NGS count over selection days 2 and 3 (reads of this peptide / all reads for the bait, averaged over ….
The same measure for chain 1 L5M: 0.000827 average fractional NGS count over selection days 2 and 3 (reads of this peptide / all reads for the bait, averaged over ….
Regarding chain 1 L5A, the screen value was 0.00106 average fractional NGS count over selection days 2 and 3 (reads of this peptide / all reads for the bait, averaged over ….
In the case of chain 1 L5Y it was 0.00132 average fractional NGS count over selection days 2 and 3 (reads of this peptide / all reads for the bait, averaged over …; in that of chain 1 E12I, 0.00181 average fractional NGS count over selection days 2 and 3 (reads of this peptide / all reads for the bait, averaged over …; in that of chain 1 E12M, 0.000654 average fractional NGS count over selection days 2 and 3 (reads of this peptide / all reads for the bait, averaged over ….
The same measure for chain 1 E12S: 0.00196 average fractional NGS count over selection days 2 and 3 (reads of this peptide / all reads for the bait, averaged over …; for chain 1 A10G: 0.00143 average fractional NGS count over selection days 2 and 3 (reads of this peptide / all reads for the bait, averaged over ….
In the case of chain 1 A10H it was 0.013 average fractional NGS count over selection days 2 and 3 (reads of this peptide / all reads for the bait, averaged over …; in that of chain 1 A10R, 0.000397 average fractional NGS count over selection days 2 and 3 (reads of this peptide / all reads for the bait, averaged over ….
For the variant chain 1 A10E, the screen value was 0.000658 average fractional NGS count over selection days 2 and 3 (reads of this peptide / all reads for the bait, averaged over ….
The same measure for chain 1 D2K: 0.000496 average fractional NGS count over selection days 2 and 3 (reads of this peptide / all reads for the bait, averaged over ….
In the case of chain 1 D2R, the screen value is 0.000895 average fractional NGS count over selection days 2 and 3 (reads of this peptide / all reads for the bait, averaged over ….
Turning to chain 1 D2A, the screen value was 0.00157 average fractional NGS count over selection days 2 and 3 (reads of this peptide / all reads for the bait, averaged over ….
The same measure for chain 1 D2W: 0.000382 average fractional NGS count over selection days 2 and 3 (reads of this peptide / all reads for the bait, averaged over …; for chain 1 D2E: 0.000736 average fractional NGS count over selection days 2 and 3 (reads of this peptide / all reads for the bait, averaged over ….
In the case of chain 1 A1G it was 0.000525 average fractional NGS count over selection days 2 and 3 (reads of this peptide / all reads for the bait, averaged over ….
In the case of chain 1 A1N it was 0.00108 average fractional NGS count over selection days 2 and 3 (reads of this peptide / all reads for the bait, averaged over …; in that of chain 1 A1T, 0.00109 average fractional NGS count over selection days 2 and 3 (reads of this peptide / all reads for the bait, averaged over ….
On to chain 1 A1F, for which the screen value is 0.00127 average fractional NGS count over selection days 2 and 3 (reads of this peptide / all reads for the bait, averaged over ….
The same measure for chain 1 A1E: 0.00113 average fractional NGS count over selection days 2 and 3 (reads of this peptide / all reads for the bait, averaged over …; for chain 1 A1P: 0.000566 average fractional NGS count over selection days 2 and 3 (reads of this peptide / all reads for the bait, averaged over ….
The same measure for chain 1 A1Y: 0.000485 average fractional NGS count over selection days 2 and 3 (reads of this peptide / all reads for the bait, averaged over …; for chain 1 N8W: 0.00165 average fractional NGS count over selection days 2 and 3 (reads of this peptide / all reads for the bait, averaged over …; for chain 1 N8S: 0.00269 average fractional NGS count over selection days 2 and 3 (reads of this peptide / all reads for the bait, averaged over ….
For the variant chain 1 N8G, the screen value is 0.00135 average fractional NGS count over selection days 2 and 3 (reads of this peptide / all reads for the bait, averaged over ….
On to chain 1 N8L, for which the screen value was 0.000366 average fractional NGS count over selection days 2 and 3 (reads of this peptide / all reads for the bait, averaged over ….
As for chain 1 N8F, the screen value is 0.00191 average fractional NGS count over selection days 2 and 3 (reads of this peptide / all reads for the bait, averaged over ….
For chain 1 N8I, the screen value was 0.0016 average fractional NGS count over selection days 2 and 3 (reads of this peptide / all reads for the bait, averaged over ….
In the case of chain 1 N8H it was 0.00161 average fractional NGS count over selection days 2 and 3 (reads of this peptide / all reads for the bait, averaged over …; in that of chain 1 N8E, 0.00099 average fractional NGS count over selection days 2 and 3 (reads of this peptide / all reads for the bait, averaged over ….
With chain 1 F13I, the screen value was 0.000603 average fractional NGS count over selection days 2 and 3 (reads of this peptide / all reads for the bait, averaged over ….
The same measure for chain 1 F13Y: 0.00124 average fractional NGS count over selection days 2 and 3 (reads of this peptide / all reads for the bait, averaged over ….
The same measure for chain 1 F13W: 0.000735 average fractional NGS count over selection days 2 and 3 (reads of this peptide / all reads for the bait, averaged over ….
Regarding chain 1 Q11F, the screen value is 0.000569 average fractional NGS count over selection days 2 and 3 (reads of this peptide / all reads for the bait, averaged over ….
In the case of chain 1 Q11Y it was 0.000918 average fractional NGS count over selection days 2 and 3 (reads of this peptide / all reads for the bait, averaged over …; in that of chain 1 Q11W, 0.0122 average fractional NGS count over selection days 2 and 3 (reads of this peptide / all reads for the bait, averaged over …; in that of chain 1 E7R, 0.00247 average fractional NGS count over selection days 2 and 3 (reads of this peptide / all reads for the bait, averaged over ….
The same measure for chain 1 E7M: 0.0015 average fractional NGS count over selection days 2 and 3 (reads of this peptide / all reads for the bait, averaged over ….
Turning to chain 1 E7T, the screen value was 0.00188 average fractional NGS count over selection days 2 and 3 (reads of this peptide / all reads for the bait, averaged over ….
For the variant chain 1 E7S, the screen value was 0.00412 average fractional NGS count over selection days 2 and 3 (reads of this peptide / all reads for the bait, averaged over ….
Consider chain 1 E7A, for which the screen value was 0.00398 average fractional NGS count over selection days 2 and 3 (reads of this peptide / all reads for the bait, averaged over ….
chain 1 E7G: the screen value was 0.00129 average fractional NGS count over selection days 2 and 3 (reads of this peptide / all reads for the bait, averaged over ….
The same measure for chain 1 E7L: 0.00102 average fractional NGS count over selection days 2 and 3 (reads of this peptide / all reads for the bait, averaged over …; for chain 1 E7D: 0.00312 average fractional NGS count over selection days 2 and 3 (reads of this peptide / all reads for the bait, averaged over …; for chain 1 E7V: 0.000676 average fractional NGS count over selection days 2 and 3 (reads of this peptide / all reads for the bait, averaged over ….
In the case of chain 1 E7W it was 0.0042 average fractional NGS count over selection days 2 and 3 (reads of this peptide / all reads for the bait, averaged over …; in that of chain 1 L3T, 0.000563 average fractional NGS count over selection days 2 and 3 (reads of this peptide / all reads for the bait, averaged over …; in that of chain 1 L3W, 0.000685 average fractional NGS count over selection days 2 and 3 (reads of this peptide / all reads for the bait, averaged over ….
Take chain 1 L3H: the screen value is 0.00618 average fractional NGS count over selection days 2 and 3 (reads of this peptide / all reads for the bait, averaged over ….
For the variant chain 1 L3F, the screen value is 0.000885 average fractional NGS count over selection days 2 and 3 (reads of this peptide / all reads for the bait, averaged over ….
For the variant chain 1 L3M, the screen value is 0.00299 average fractional NGS count over selection days 2 and 3 (reads of this peptide / all reads for the bait, averaged over ….
In the case of chain 1 L3I it was 0.000729 average fractional NGS count over selection days 2 and 3 (reads of this peptide / all reads for the bait, averaged over ….
The same measure for chain 1 A15V: 0.000924 average fractional NGS count over selection days 2 and 3 (reads of this peptide / all reads for the bait, averaged over ….
Regarding chain 1 A15F, the screen value was 0.000391 average fractional NGS count over selection days 2 and 3 (reads of this peptide / all reads for the bait, averaged over ….
Take chain 1 A15H: the screen value is 0.000537 average fractional NGS count over selection days 2 and 3 (reads of this peptide / all reads for the bait, averaged over ….
The same measure for chain 1 A15W: 0.00189 average fractional NGS count over selection days 2 and 3 (reads of this peptide / all reads for the bait, averaged over ….
As for chain 1 A15M, the screen value was 0.000398 average fractional NGS count over selection days 2 and 3 (reads of this peptide / all reads for the bait, averaged over ….
In the case of chain 1 A15L it was 0.00105 average fractional NGS count over selection days 2 and 3 (reads of this peptide / all reads for the bait, averaged over ….
On to chain 1 A15P, for which the screen value was 0.00041 average fractional NGS count over selection days 2 and 3 (reads of this peptide / all reads for the bait, averaged over ….
chain 1 A4T: the screen value is 0.00418 average fractional NGS count over selection days 2 and 3 (reads of this peptide / all reads for the bait, averaged over ….
Take chain 1 A4N: the screen value is 0.000393 average fractional NGS count over selection days 2 and 3 (reads of this peptide / all reads for the bait, averaged over ….
Take chain 1 A4V: the screen value is 0.000411 average fractional NGS count over selection days 2 and 3 (reads of this peptide / all reads for the bait, averaged over ….
The same measure for chain 1 A4I: 0.000694 average fractional NGS count over selection days 2 and 3 (reads of this peptide / all reads for the bait, averaged over …; for chain 1 A4P: 0.00132 average fractional NGS count over selection days 2 and 3 (reads of this peptide / all reads for the bait, averaged over ….
For the variant chain 1 A4H, the screen value is 0.00244 average fractional NGS count over selection days 2 and 3 (reads of this peptide / all reads for the bait, averaged over ….
